Measured values as given in the supplement of paper PMC7877785.
± gives the uncertainty stated by the source.

Assay: self-splicing fitness, log relative to wild type (ln ratio); higher = more splicing; Tetrahymena group I intron in knt gene, E. coli kanamycin selection, DiMSum; sequences stand for … in CUCUCU…GGAGGGAAAAGUUAUCAGGCAUGCACCUGGUAGCUAGUCUUUAAACCAAUAGAUUGCAUCGGUUUAAAAGGCAAGACCGUCAAAUUGCGGGAAAGGGGUCAACAGCCGUUCAGUACCAAGUCUCAGGGGAAACUUUGAGAUGGCCUUGCAAAGGGUAUGGUAAUAAGCUGACGGACAUGGUCCUAACCACGCAGCCAAGUCCUAAGUCAACAGAUCUUCUGUUGAUAUGGAUGCAGUUCACAGACUAAAUGUCGGUCGGGGAAGAUGUAUUCUUCUCAUAAGAUAUAGUCGGACCUCUCCUUAAUGGGAGCUAGCGGAUGAAGUGAUGCAACACUGGAGCCGCUGGGAACUAAUUUGUAUGCGAAAGUAUAUUGAUUAGUUUUGGAGUACUCGUGGUCG
Outline: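 Colonies from six replicate transformations of E. coli BL21(DE3) were pooled and amplicon-sequenced on an Illumina HiSeq 2500. The library placed an intron with all eight P1ex-region nucleotides randomised inside the knt kanamycin-resistance gene on pET-22b(+), and cells grew overnight at 37°C or 30°C on LB agar with or without 25 μg/mL kanamycin (plus 100 μg/mL carbenicillin, 50 μM IPTG, 0.2% rhamnose). Fitness is the DiMSum error-weighted combination of wild-type-normalised replicate fold changes, kanamycin versus none.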

| Sequence | self-splicing fitness (ln) (30 °C) | self-splicing fitness (ln) (37 °C) |
| --- | --- | --- |
| GAUGAGCAAUAUUACGCUUG | -3.15 ± 0.39 | -1.07 ± 0.3 |
| GAUGAGCAAUAUUACGCUUU | -3.32 ± 0.21 | -3.79 ± 0.33 |
| GAUGAGCAAUAUUACGGAGC | -3.9 ± 0.3 | -0.441 ± 0.13 |
| GAUGAGCAAUAUUACGGCGU | -0.735 ± 0.11 | -0.736 ± 0.13 |
| GAUGAGCAAUAUUACGGCUC | -0.914 ± 0.26 | -1.12 ± 0.32 |
| GAUGAGCAAUAUUACGGGCU | -2.22 ± 0.4 | – |
| GAUGAGCAAUAUUACGGGUU | -2.39 ± 0.17 | -2.6 ± 0.27 |
| GAUGAGCAAUAUUACGGUCA | -3.49 ± 0.47 | -0.516 ± 0.19 |
| GAUGAGCAAUAUUACGGUGG | -4.41 ± 0.23 | -1.73 ± 0.14 |
| GAUGAGCAAUAUUACGUACA | -2.09 ± 0.16 | -0.48 ± 0.13 |
| GAUGAGCAAUAUUACGUACG | -2.59 ± 0.35 | -1.55 ± 0.5 |
| GAUGAGCAAUAUUACGUUUC | -2.77 ± 0.31 | -2.57 ± 0.29 |
| GAUUAGCAAUAUUACGACUC | -0.282 ± 0.13 | 0.2 ± 0.16 |
| GAUUAGCAAUAUUACGAGCG | -1.27 ± 0.12 | 0.534 ± 0.12 |
| GAUUAGCAAUAUUACGAGGG | -2.81 ± 0.29 | -2.88 ± 0.29 |
| GAUUAGCAAUAUUACGAGUU | -2.53 ± 0.14 | -0.583 ± 0.11 |
| GAUUAGCAAUAUUACGAUAG | -2.37 ± 0.13 | -1.1 ± 0.16 |
| GAUUAGCAAUAUUACGAUGA | -1.8 ± 0.13 | 0.00201 ± 0.11 |
| GAUUAGCAAUAUUACGCACA | -0.341 ± 0.17 | -0.721 ± 0.12 |
| GAUUAGCAAUAUUACGCAGU | -3.28 ± 0.32 | -1.44 ± 0.19 |
| GAUUAGCAAUAUUACGCCUU | -0.529 ± 0.11 | -0.304 ± 0.12 |
| GAUUAGCAAUAUUACGGACC | -0.347 ± 0.18 | -0.379 ± 0.16 |
| GAUUAGCAAUAUUACGGAUU | -3.17 ± 0.21 | -2.13 ± 0.23 |
| GAUUAGCAAUAUUACGGCAU | -0.835 ± 0.11 | 0.24 ± 0.12 |
| GAUUAGCAAUAUUACGGCCG | -1.01 ± 0.13 | -1.01 ± 0.19 |

| Sequence | self-splicing fitness (ln) (30 °C) | self-splicing fitness (ln) (37 °C) |
| --- | --- | --- |
| GAUUAGCAAUAUUACGGCGU | -0.737 ± 0.068 | -0.796 ± 0.062 |
| GAUUAGCAAUAUUACGGGAU | -2.76 ± 0.2 | -1.14 ± 0.18 |
| GAUUAGCAAUAUUACGGGGC | -3.62 ± 0.49 | -2.97 ± 0.3 |
| GAUUAGCAAUAUUACGGUCC | -3.27 ± 0.39 | – |
| GAUUAGCAAUAUUACGUAUA | -2.65 ± 0.22 | -0.643 ± 0.19 |
| GAUUAGCAAUAUUACGUCAG | -3.51 ± 0.35 | -4.23 ± 0.46 |
| GAUUAGCAAUAUUACGUCUU | -0.485 ± 0.086 | -0.732 ± 0.088 |
| GAUUAGCAAUAUUACGUGUG | -2.13 ± 0.077 | -1.61 ± 0.075 |
| GAUUAGCAAUAUUACGUGUU | -2.85 ± 0.22 | -1.66 ± 0.14 |
| GAUUAGCAAUAUUACGUUGA | -2.8 ± 0.22 | -2.25 ± 0.19 |
| GCAAAGCAAUAUUACGAACC | -0.831 ± 0.13 | -0.43 ± 0.17 |
| GCAAAGCAAUAUUACGAAUA | -2.56 ± 0.17 | -0.704 ± 0.13 |
| GCAAAGCAAUAUUACGACAA | -1.43 ± 0.1 | -0.838 ± 0.087 |
| GCAAAGCAAUAUUACGACGA | -0.0819 ± 0.088 | -0.213 ± 0.1 |
| GCAAAGCAAUAUUACGACGG | -2.23 ± 0.13 | -1.2 ± 0.2 |
| GCAAAGCAAUAUUACGAUCU | -0.767 ± 0.087 | -0.252 ± 0.099 |
| GCAAAGCAAUAUUACGCAAA | -1.95 ± 0.1 | -1.58 ± 0.1 |
| GCAAAGCAAUAUUACGCACG | -1.83 ± 0.12 | -0.806 ± 0.11 |
| GCAAAGCAAUAUUACGCGAU | -2.8 ± 0.23 | -2.73 ± 0.3 |
| GCAAAGCAAUAUUACGCGUA | -0.985 ± 0.075 | -0.362 ± 0.071 |
| GCAAAGCAAUAUUACGGCCG | -0.0405 ± 0.18 | -1.41 ± 0.33 |
| GCAAAGCAAUAUUACGGCCU | -0.867 ± 0.12 | -0.967 ± 0.16 |
| GCAAAGCAAUAUUACGGCGG | -1.18 ± 0.13 | -2.07 ± 0.2 |
| GCAAAGCAAUAUUACGGGGA | -2.9 ± 0.16 | -1.99 ± 0.15 |
| GCAAAGCAAUAUUACGGUAC | -1.91 ± 0.086 | 0.0303 ± 0.092 |

| Sequence | self-splicing fitness (ln) (30 °C) | self-splicing fitness (ln) (37 °C) |
| --- | --- | --- |
| GCAAAGCAAUAUUACGGUGC | -2.45 ± 0.12 | -3.66 ± 0.27 |
| GCAAAGCAAUAUUACGGUGU | -4.55 ± 0.29 | -2.71 ± 0.25 |
| GCAAAGCAAUAUUACGUGCG | -0.856 ± 0.067 | -0.144 ± 0.095 |
| GCAAAGCAAUAUUACGUUCC | -0.778 ± 0.082 | -0.849 ± 0.14 |
| GCAAAGCAAUAUUACGUUGG | -1.94 ± 0.069 | -1.32 ± 0.09 |
| GCAAAGCAAUAUUACGUUUG | -4.2 ± 0.17 | -3.24 ± 0.15 |
| GCACAGCAAUAUUACGAACC | -0.135 ± 0.15 | 0.621 ± 0.18 |
| GCACAGCAAUAUUACGAACU | -0.419 ± 0.056 | -0.167 ± 0.072 |
| GCACAGCAAUAUUACGACAA | -1.18 ± 0.087 | -1.22 ± 0.087 |
| GCACAGCAAUAUUACGACCU | -0.6 ± 0.11 | -0.325 ± 0.13 |
| GCACAGCAAUAUUACGACGG | -1.34 ± 0.098 | -0.832 ± 0.13 |
| GCACAGCAAUAUUACGACUU | -0.119 ± 0.076 | 0.33 ± 0.088 |
| GCACAGCAAUAUUACGAGAG | -2.96 ± 0.14 | -1.33 ± 0.11 |
| GCACAGCAAUAUUACGCACC | -0.769 ± 0.13 | 0.129 ± 0.15 |
| GCACAGCAAUAUUACGCAGA | -3.16 ± 0.28 | -3.06 ± 0.29 |
| GCACAGCAAUAUUACGCAGG | -3.5 ± 0.18 | -2.74 ± 0.18 |
| GCACAGCAAUAUUACGCGGU | -4.01 ± 0.2 | -1.87 ± 0.11 |
| GCACAGCAAUAUUACGCUGG | -3.29 ± 0.18 | -1.92 ± 0.15 |
| GCACAGCAAUAUUACGGAAC | -1.06 ± 0.086 | -0.752 ± 0.12 |
| GCACAGCAAUAUUACGGAGG | -2 ± 0.099 | -0.502 ± 0.11 |
| GCACAGCAAUAUUACGGAUU | -0.914 ± 0.055 | -0.231 ± 0.073 |
| GCACAGCAAUAUUACGGCAA | -1.31 ± 0.13 | -0.887 ± 0.14 |
| GCACAGCAAUAUUACGGCCA | -1.84 ± 0.21 | -0.441 ± 0.19 |
| GCACAGCAAUAUUACGGCUG | -3.49 ± 0.13 | -2.4 ± 0.14 |
| GCACAGCAAUAUUACGGGGC | -3.43 ± 0.16 | -2.62 ± 0.18 |

| Sequence | self-splicing fitness (ln) (30 °C) | self-splicing fitness (ln) (37 °C) |
| --- | --- | --- |
| GCACAGCAAUAUUACGGUCU | -0.685 ± 0.042 | 0.63 ± 0.06 |
| GCACAGCAAUAUUACGGUGG | -1.54 ± 0.048 | -1.35 ± 0.07 |
| GCACAGCAAUAUUACGGUUG | -2.18 ± 0.059 | -1.02 ± 0.072 |
| GCACAGCAAUAUUACGUCGG | -1.72 ± 0.1 | -1.09 ± 0.13 |
| GCACAGCAAUAUUACGUGAC | -1.13 ± 0.089 | -1.97 ± 0.1 |
| GCACAGCAAUAUUACGUUCG | -0.717 ± 0.065 | -0.441 ± 0.085 |
| GCAGAGCAAUAUUACGACCG | -3.12 ± 0.46 | – |
| GCAGAGCAAUAUUACGAGCA | -2.32 ± 0.24 | -2.4 ± 0.34 |
| GCAGAGCAAUAUUACGAGGU | – | -2.24 ± 0.31 |
| GCAGAGCAAUAUUACGAGUC | -2.97 ± 0.25 | -2.39 ± 0.32 |
| GCAGAGCAAUAUUACGAUAC | -2.79 ± 0.28 | -0.699 ± 0.22 |
| GCAGAGCAAUAUUACGAUAU | -3.38 ± 0.29 | -1.72 ± 0.2 |
| GCAGAGCAAUAUUACGAUGC | -4.01 ± 0.32 | -1.99 ± 0.18 |
| GCAGAGCAAUAUUACGCAUC | -3.14 ± 0.34 | – |
| GCAGAGCAAUAUUACGCGAU | -2.94 ± 0.36 | – |
| GCAGAGCAAUAUUACGCGUC | -3.88 ± 0.2 | -2.03 ± 0.14 |
| GCAGAGCAAUAUUACGCUGU | -2.66 ± 0.18 | -2.87 ± 0.23 |
| GCAGAGCAAUAUUACGGACU | -2.18 ± 0.34 | -1.9 ± 0.21 |
| GCAGAGCAAUAUUACGGUGG | -3.65 ± 0.33 | -2.21 ± 0.21 |
| GCAGAGCAAUAUUACGGUGU | -4.3 ± 0.32 | -2.31 ± 0.16 |
| GCAGAGCAAUAUUACGUAAU | -2.29 ± 0.21 | -1.95 ± 0.35 |
| GCAGAGCAAUAUUACGUCAG | – | -2.97 ± 0.29 |
